Experimental data published in US20250002962.

Columns and labels:
[1] = biological target: rS1 domain 3 (S1 D3), P0AG67
[2] = biological target: rS1 domain 4 (S1 D4), P0AG67
[3] = biological target: rS1 domain 2 R139K (S1 D2 R139K), P0AG67
[4] = biological target: rS1 domain 2 R139A (S1 D2 R139A), P0AG67
[5] = biological target: rS1 domain 2 (S1 D2), P0AG67
[6] = biological target: ribosomal protein S1 (rS1), P0AG67
[7] = biological target: rS1 domain 6 (S1 D6), P0AG67
[8] = biological target: rS1 domain 5 (S1 D5), P0AG67
[9] = biological target: rS1 domain 1 (S1 D1), P0AG67

BSA, P02769, sequence (P02769 25-607): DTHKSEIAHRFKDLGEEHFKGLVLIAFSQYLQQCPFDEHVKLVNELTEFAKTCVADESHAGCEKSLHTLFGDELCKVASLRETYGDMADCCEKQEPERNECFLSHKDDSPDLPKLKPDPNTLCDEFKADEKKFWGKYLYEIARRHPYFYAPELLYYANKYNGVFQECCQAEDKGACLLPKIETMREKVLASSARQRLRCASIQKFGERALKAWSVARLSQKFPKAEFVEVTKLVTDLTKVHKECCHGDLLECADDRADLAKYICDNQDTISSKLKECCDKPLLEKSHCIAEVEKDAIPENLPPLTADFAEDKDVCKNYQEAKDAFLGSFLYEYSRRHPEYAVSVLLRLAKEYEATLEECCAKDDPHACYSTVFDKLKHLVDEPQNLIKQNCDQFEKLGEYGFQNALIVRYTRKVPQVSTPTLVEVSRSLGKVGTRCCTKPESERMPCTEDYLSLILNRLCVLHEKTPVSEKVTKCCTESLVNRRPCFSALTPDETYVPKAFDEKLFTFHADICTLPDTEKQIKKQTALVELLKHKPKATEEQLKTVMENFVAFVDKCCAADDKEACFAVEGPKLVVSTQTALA

B1: ADP-ribosyltransferase ModB from Escherichia virus T4 (cloned ModB with His6 tag) (protein)
chain: MGIINLADVEQLSIKAESVDFQYDMYKKVCEKFTDFEQSVLWQCMEAKKNEALHKHLNEIIKKHLTKSPYQLYRGISKSTKELIKDLQVGEVFSTNRVDSFTTSLHTACSFSYAEYFTETILRLKTDKAFNYSDHISDIILSSPNTEFKYTYEDTDGLDSERTDNLMMIVREQEWMIPIGKYKITSISKEKLHDSFGTFKVYDIEVVELVPRGSLEHHHHHH
With B1 the “RNAylation assay with single S1 domains” value [1] was “rS1 D1, D3, D4 and D5 domains were modified to a much lesser extent”, the “RNAylation assay with single S1 domains” value [2] was “rS1 D1, D3, D4 and D5 domains were modified to a much lesser extent” and the “ADP-ribosylation level of D2” value [3] was “the ADP-ribosylation level of D2 is dramatically reduced if R139 is substituted by alanine or lysine”. The “ADP-ribosylation level of D2” value [4] was “the ADP-ribosylation level of D2 is dramatically reduced if R139 is substituted by alanine or lysine”, the “RNAylation assay with single S1 domains” value [5] was “For rS1 domains D2 and D6 high RNAylation signals were determined” and the “RNAylation with 5'-NXD-10mer-Cy5 RNAs (Tricine gel, band shift)” value [5] was “rS1 DII was RNAylated in the presence of 5'-NXD-RNAs by ModB”. For the same protein, the “RNAylation of rS1 with 32P-labelled 5'-NAD-RNA 8mer (SDS-PAGE, autoradiography)” value [6] was “ModB rapidly RNAylated its known target, ribosomal protein S1 (rS1) without detectable self-RNAylation”, the “RNAylation assay with single S1 domains” value [7] was “For rS1 domains D2 and D6 high RNAylation signals were determined” and the “RNAylation assay with single S1 domains” value [8] was “rS1 D1, D3, D4 and D5 domains were modified to a much lesser extent”. For the same protein, the “in vitro RNAylation and ADP-ribosylation (SDS-PAGE)” value (BSA, P02769) was “control proteins without S1 domain (BSA, NudC inactive quadruple mutant) were not” and the “RNAylation assay with single S1 domains” value [9] was “rS1 D1, D3, D4 and D5 domains were modified to a much lesser extent”.
